In assay [1] the target is T1, BSA (bovine, UniProt P02769 25-607).
T1 construct: also called bovine serum albumin
Nature of the assay: ELISA. Put shortly:
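Fab from E. coli TG1 lysates bound to plates coated with human TFPI, or with mouse TFPI for cross-reactivity, with BSA and lysozyme as negative controls. Detection by HRP-anti-human Fab with AmplexRed/H2O2; signal ≥5-fold over background scored positive.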

The target in assay [2] is T2, human tissue factor pathway inhibitor (TFPI) (human, UniProt P10646 29-304, limits assumed).
T2 sequence (looked up): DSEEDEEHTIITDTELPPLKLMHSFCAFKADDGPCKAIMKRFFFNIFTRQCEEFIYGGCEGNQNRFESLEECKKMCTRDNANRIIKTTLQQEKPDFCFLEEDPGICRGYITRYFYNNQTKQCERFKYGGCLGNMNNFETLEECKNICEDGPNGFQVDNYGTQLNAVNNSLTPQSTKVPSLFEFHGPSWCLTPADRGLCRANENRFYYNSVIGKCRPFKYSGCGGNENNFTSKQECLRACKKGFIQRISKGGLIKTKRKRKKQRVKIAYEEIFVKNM
Nature of the assay: cell-based or functional assay.

Assay [3] concerns the target T2, human tissue factor pathway inhibitor …. Nature of the assay: ELISA, Fab on coated TFPI. Put shortly:
(§1)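 Purified Fabs titrated on human or mouse TFPI-coated plates; bound Fab detected with HRP anti-human Fab and AmplexRed/H2O2 to derive EC50. Affinity and kinetics by Biacore: TFPI amine-coupled on CM5 (~300 RU), Fabs in mobile phase at 0.1, 0.4, 1.6, 6.4 and 25 nM.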

The target in assay [4] is T3, mouse tissue factor pathway inhibitor (TFPI) (mouse, UniProt O54819 29-289, limits assumed).
T3 construct: Bought protein; also called mouse TFPI; mTFPI
T3 sequence (looked up): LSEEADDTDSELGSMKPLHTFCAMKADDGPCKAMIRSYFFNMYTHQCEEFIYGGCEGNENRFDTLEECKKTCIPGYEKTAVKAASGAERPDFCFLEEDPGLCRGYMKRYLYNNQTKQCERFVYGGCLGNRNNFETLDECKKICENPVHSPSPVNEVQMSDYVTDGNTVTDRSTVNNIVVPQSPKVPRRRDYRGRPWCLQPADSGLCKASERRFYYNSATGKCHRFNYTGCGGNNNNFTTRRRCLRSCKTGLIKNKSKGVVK
As to the kind of experiment: ELISA, Fab on coated mouse TFPI. As to the method:
To select antibody clones that bind to human TFPI, Fab genes of the phage clones from the second and third round of panning were subcloned into a bacterial expression vector and expressed in E. coli strain TG1. The bacterial lysate was added to the wells of the human TFPI-coated Maxisorp plates. After washing, HRP-conjugated goat anti-human Fab was used as a detection antibody and the plates were developed by adding AmplexRed (Invitrogen) with hydrogen peroxide. A signal of at least five-fold higher than the background was considered as positive. The cross reactivity of the anti-human TFPI antibodies to mouse TFPI was determined by a similar mouse TFPI-binding ELISA. The plates were coated with mouse TFPI (R&D System), BSA and lysozyme. The later two antigens were used as negative controls.

For assay [5], the target named is T2, human tissue factor pathway inhibitor …. Nature of the assay: Biacore, TFPI on CM5 chip, Fab in mobile phase. Put shortly:
(§2)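 Surface plasmon resonance with human or mouse TFPI amine-coupled to a CM5 chip at approximately 300 RU. Purified Fabs were injected in mobile phase at 0.1, 0.4, 1.6, 6.4 and 25 nM. Kinetics and binding affinity were derived from the sensorgrams.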

Assay [6] has as its target T4, human TFPI K1 (human, UniProt P10646 29-107, limits assumed).
T4 construct: domain: K1; also called Kunitz domain 1
T4 sequence (looked up): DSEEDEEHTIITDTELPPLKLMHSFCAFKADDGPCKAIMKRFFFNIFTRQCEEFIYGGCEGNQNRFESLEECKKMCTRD
As to the kind of experiment: Western blots and ELISA. As to the method: Western blots and ELISA were used to determine which domain(s) of TFPI of the inhibitory antibodies bind. Recombinant full length human TFPI or TFPI domains were used for these studies. ELISA was similar to Example 3. In the Western Blot, human TFPI or domains were run on 4-12% Bis-Tris SDS PAGE running buffer MES (Invitrogen, Carlsbad, Calif.) and then transferred to cellulose membrane. After incubation with inhibitory antibodies for 10 min, the membrane was washed three times using SNAPid system (Millipore, Billerica, Mass.). A HRP conjugated donkey anti-mouse antibody (Pierce, Rockford, Ill.) at 1 to 10,000 dilution was incubated with the membrane for 10 min. After a similar wash step, the membrane was developed using SuperSignal substrate (Pierce, Rockford, Ill.). Whereas the control anti-Kunitz domain 1 antibody binds to full length TFPI, truncated TFPI and domains, inhibitory anti-TFPI antibodies only bind to TFPI containing Kunitz domain 2.

Assay [7] has as its target T3, mouse tissue factor pathway inhibitor …. As to the kind of experiment: ELISA, Fab on coated TFPI. Put shortly:
as §1

For assay [8] the target is unchanged. As to the kind of experiment: Biacore, TFPI on CM5 chip, Fab in mobile phase. In a few lines:
as §2

The record followed here is patent US20120269817A1 (Bayer, published 2012).

T1 sequence (P02769 25-607 limits assumed): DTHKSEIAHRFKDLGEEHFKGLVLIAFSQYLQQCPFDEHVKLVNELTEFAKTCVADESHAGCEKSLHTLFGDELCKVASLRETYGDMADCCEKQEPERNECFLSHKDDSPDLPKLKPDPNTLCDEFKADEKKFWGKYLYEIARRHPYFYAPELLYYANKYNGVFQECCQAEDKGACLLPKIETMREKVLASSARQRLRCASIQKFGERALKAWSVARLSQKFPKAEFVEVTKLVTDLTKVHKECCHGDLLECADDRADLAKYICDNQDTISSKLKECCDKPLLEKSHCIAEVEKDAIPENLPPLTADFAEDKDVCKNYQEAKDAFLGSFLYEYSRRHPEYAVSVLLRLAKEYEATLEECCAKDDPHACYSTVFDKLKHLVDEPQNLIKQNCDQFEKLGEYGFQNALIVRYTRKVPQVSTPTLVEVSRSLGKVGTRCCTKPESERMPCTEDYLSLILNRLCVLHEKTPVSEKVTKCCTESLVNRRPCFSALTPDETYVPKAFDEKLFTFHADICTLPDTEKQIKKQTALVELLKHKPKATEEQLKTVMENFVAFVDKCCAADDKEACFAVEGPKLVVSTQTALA

B1: TP-2G7 Fab (Fab, V domains shown)
VH: QVQLVESGGGLVQPGGSLRLSCAASGFTFNSYAMSWVRQAPGKGLEWVSNISSNSSNTYYADSVKGRFTISRDNSKNTLYLQMNSLRAEDTAVYYCARKGGGEHGFFPSDIWGQGTLVTVSS
VL: DIELTQPPSVSVAPGQTARISCSGDNLGTYYVHWYQQKPGQAPVLVIYGDNNRPSGIPERFSGSNSGNTATLTISGTQAEDEADYYCQTYDSNNESIVFGGGTKLTVLG
notes: Human Fab from HuCal Gold, expressed in E. coli TG1
As for B1, the binding result in assay [1] and in assay [4] was “no binding” in each case. In addition, the “% inhibition of hTFPI activity” value in assay [2] is 55%. In addition, in assay [2], the “dPT in hemoA plasma” value is 72.2 s. In addition, in assay [3], the EC50 amounted to 23.5 nM. Moreover, in assay [5], the Kd came to 26.9 nM.

B2: TP-4H8 Fab (Fab, V domains shown)
VH: QVQLVESGGGLVQPGGSLRLSCAASGFTFSDHAMHWVRQAPGKGLEWVSVIEYSGSKTNYADSVKGRFTISRDNSKNTLYLQMNSLRAEDTAVYYCARGDYYPYLVFAIWGQGTLVTVSS
VL: DIELTQPPSVSVAPGQTARISCSGDSIGKKYVHWYQQKPGQAPVLVIYGDNNRPSGIPERFSGSNSGNTATLTISGTQAEDEADYYCSTADSVITYKNVFGGGTKLTVLG
notes: as for B1
With B2, the binding result in assay [1] is given as “no binding”. Moreover, in assay [2], the “% inhibition of hTFPI activity” value is 28% and the “dPT in hemoA plasma” value is 76.5 s. For the same molecule, the EC50 in assay [3] came to 72.5 nM. In addition, the binding result in assay [4] was “no binding”. The same molecule returned a Kd in assay [5] of 32.2 nM.

B3: TP-2C1 Fab (Fab, V domains shown)
VH: QVQLVESGGGLVQPGGSLRLSCAASGFTFSPYVMSWVRQAPGKGLEWVSSISSSSSNTYYADSVKGRFTISRDNSKNTLYLQMNSLRAEDTAVYYCARGDSYMYDVWGQGTLVTVSS
VL: DIELTQPPSVSVAPGQTARISCSGDSIGSYYAHWYQQKPGQAPVLVIYYDSKRPSGIPERFSGSNSGNTATLTISGTQAEDEADYYCQAYTGQSISRVFGGGTKLTVLG
notes: as for B1
B3: the binding result in assay [1] is recorded as “no binding”. Further, in assay [2], the “% inhibition of hTFPI activity” value amounted to 21% and the “dPT in hemoA plasma” value came out at 70.9 s. The EC50 in assay [3] was 0.4 nM. The binding result in assay [4] is listed as “no binding”. In assay [5], this molecule registered a Kd of 2.64 nM.

B4: TP-2A8-IgG (antibody, V domains shown)
VH: QVQLVESGGGLVQPGGSLRLSCAASGFTFRSYGMSWVRQAPGKGLEWVSSIRGSSSSTYYADSVKGRFTISRDNSKNTLYLQMNSLRAEDTAVYYCARKYRYWFDYWGQGTLVTVSS
VL: DIELTQPPSVSVAPGQTARISCSGDNLRNYYAHWYQQKPGQAPVVVIYYDNNRPSGIPERFSGSNSGNTATLTISGTQAEDEADYYCQSWDDGVPVFGGGTKLTVLG
notes: Chimeric IgG: human variable regions on mouse constant regions, murine IgG1 isotype, made in HKB11 cells
With B4, the binding result in assay [6] is on record as “no binding”.

B5: TP-2B3 chimeric IgG (antibody, V domains shown)
VH: QVQLQQSGPGLVKPSQTLSLTCAISGDSVSSNSAAWGWIRQSPGRGLEWLGMIYYRSKWYNSYAVSVKSRITINPDTSKNQFSLQLNSVTPEDTAVYYCARTMSKYGGPGMDVWGQGTLVTVSS
VL: DIVLTQSPATLSLSPGERATLSCRASQNIGSNYLAWYQQKPGQAPRLLIYGASTRATGVPARFNGSGSGTDFTLTISSLEPEDFAVYYCQQLNSIPVTFGQGTKVEIKR
notes: as for B4
As to B5, in assay [6], the binding result is given as “no binding”.

B6: TP-3G1 Fab (Fab, V domains shown)
VH: QVQLQQSGPGLVKPSQTLSLTCAISGDSVSSNSGGWGWIRQSPGRGLEWLGLIYYRSKWYNAYAVSVKSRITINPDTSKNQFSLQLNSVTPEDTAVYYCARYLGSNFYVYSDVWGQGTLVTVSS
VL: DIQMTQSPSSLSASVGDRVTITCRASQGISSYLHWYQQKPGKAPKLLIYGASTLQSGVPSRFSGSGSGTDFTLTISSLQPEDFATYYCQQQNGYPFTFGQGTKVEIKR
notes: as for B1
On to B6, for which the binding result in assay [1] is listed as “no binding”. Besides, the “% inhibition of hTFPI activity” value in assay [2] stood at 93%. Also, the “dPT in hemoA plasma” value in assay [2] amounted to 75.1 s. Besides, the EC50 in assay [3] is 74.4 nM; in assay [7], 8.68 nM. Moreover, the values for the Kd in assay [5] and in assay [8] were 1140 nM and 49.1 nM, respectively.

B7: TP-3G1 chimeric IgG (antibody, V domains shown)
VH: QVQLQQSGPGLVKPSQTLSLTCAISGDSVSSNSGGWGWIRQSPGRGLEWLGLIYYRSKWYNAYAVSVKSRITINPDTSKNQFSLQLNSVTPEDTAVYYCARYLGSNFYVYSDVWGQGTLVTVSS
VL: DIQMTQSPSSLSASVGDRVTITCRASQGISSYLHWYQQKPGKAPKLLIYGASTLQSGVPSRFSGSGSGTDFTLTISSLQPEDFATYYCQQQNGYPFTFGQGTKVEIKR
notes: as for B4
For the molecule B7, the binding result in assay [6] is “no binding”.

B8: TP-4B7 chimeric IgG (antibody, V domains shown)
VH: QVQLQQSGPGLVKPSQTLSLTCAISGDSVSSNSAAWSWIRQSPGRGLEWLGIIYKRSKWYNDYAVSVKSRITINPDTSKNQFSLQLNSVTPEDTAVYYCARWHSDKHWGFDYWGQGTLVTVSS
VL: DIVMTQSPLSLPVTPGEPASISCRSSQSLVFSDGNTYLNWYLQKPGQSPQLLIYKGSNRASGVPDRFSGSGSGTDFTLKISRVEAEDVGVYYCQQYDSYPLTFGQGTKVEIKR
notes: as for B4
For B8, in assay [6], the binding result is given as “no binding”.

B9: TP-4E8 Fab (Fab, V domains shown)
VH: QVQLVESGGGLVQPGGSLRLSCAASGFTFNDYAMSWVRQAPGKGLEWVSLIESVSSSTYYADSVKGRFTISRDNSKNTLYLQMNSLRAEDTAVYYCARTIGVLWDDVWGQGTLVTVSS
VL: DIELTQPPSVSVAPGQTARISCSGDALGSKYVSWYQQKPGQAPVLVIYGDNKRPSGIPERFSGSNSGNTATLTISGTQAEDEADYYCQSYTYSLNQVFGGGTKLTVLG
notes: as for B1
On to B9, for which the binding result in assay [1] is “no binding”. Besides, in assay [2], the “% inhibition of hTFPI activity” value was found to be 29% and the “dPT in hemoA plasma” value is 71.9 s. The molecule further yielded an EC50 in assay [3] of 36.9 nM. Moreover, the binding result in assay [4] was “no binding”. Besides, in assay [5], binding was characterised by a dissociation constant (Kd) of 35.9 nM.

B10: TP-4G8 Fab (Fab, V domains shown)
VH: QVQLVESGGGLVQPGGSLRLSCAASGFTFSTYAMHWVRQAPGKGLEWVSTISGYGSFTYYADSVKGRFTISRDNSKNTLYLQMNSLRAEDTAVYYCARNGRKYGQMDNWGQGTLVTVSS
VL: DIELTQPPSVSVAPGQTARISCSGDKLGSKSVHWYQQKPGQAPVLVIYRDTDRPSGIPERFSGSNSGNTATLTISGTQAEDEADYYCQTYDYILNVFGGGTKLTVLG
notes: as for B1
On to B10, for which the binding result in assay [1] was “no binding”. For the same molecule, in assay [2], the “% inhibition of hTFPI activity” value is 39% and the “dPT in hemoA plasma” value stood at 73.9 s. This molecule also showed an EC50 in assay [3] of 847 nM. In addition, the binding result in assay [4] was “no binding”. In assay [5], binding was characterised by a dissociation constant (Kd) of 25.2 nM.

B11: TP-3C2 chimeric IgG (antibody, V domains shown)
VH: QVQLQQSGPGLVKPSQTLSLTCAISGDSVSSSSAAWSWIRQSPGRGLEWLGMIYYRSKWYNHYAVSVKSRITINPDTSKNQFSLQLNSVTPEDTAVYYCARGGSGVMDVWGQGTLVTVSS
VL: DIQMTQSPSSLSASVGDRVTITCRASQSITNYLNWYQQKPGKAPKLLIYDVSNLQSGVPSRFSGSGSGTDFTLTISSLQPEDFAVYYCQQYSGYPLTFGQGTKVEIKR
notes: as for B4
With B11, the binding result in assay [6] is reported as “no binding”.
